{"source": "patent US20230041661A1", "about": "(Bicycle, published 2023)", "binders": {"B1": {"name": "BCY13059 (peptide)", "peptide": "ACPQDLELCTFLFGDCA", "modifications": "linker 2-9-16 via TAST", "notes": "Synthetic bicyclic peptide cyclised on TAST"}}, "target": "T1, Human IL-17A (human, UniProt Q16552 24-155)", "T1 construct": "also called Interleukin-17; CTLA-8", "T1 sequence (looked up)": "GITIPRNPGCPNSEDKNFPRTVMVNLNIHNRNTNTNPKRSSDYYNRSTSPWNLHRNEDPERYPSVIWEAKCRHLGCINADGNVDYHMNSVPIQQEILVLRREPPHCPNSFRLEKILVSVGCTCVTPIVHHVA", "test": "fluorescence polarisation competition, 75 nM human IL-17A, 1 nM tracer BCY13196 as competitor, mean of n=3, Cheng Prusoff fit", "description": "Affinity determination by fluorescence polarization (FP) competition. Bicycles were screened to determine affinity (Ki) in a fluorescence polarisation assay where in competition with a bicycle labelled with fluorescein (referred to as tracer) with a known affinity for IL-17A. Peptides were diluted to an appropriate concentration in assay buffer (PBS+0.01% Tween20, adjusted to pH7.4 using NaOH (1M)) with a maximum of 1% DMSO, then serially diluted 1 in 2 into assay buffer. Into black 384-well low volume plates, […] of diluted peptide was added to the plate followed by […] of IL-17A at a fixed concentration (75 nM IL-17A for tracer BCY13196, 50 nM IL-17A for tracer BCY13351), then […] tracer added to a final concentration of 1 nM. Measurements were conducted on a BMG PHERAstar FS equipped with an “FP 485 520 520” optic module which excites at 485 nm and detects parallel and perpendicular emission at 520 nm. The PHERAstar FS was set at 25° C. with 200 flashes per well and a positioning delay of 0.1 second, with each well measured at 5 to 10 minute intervals for 60 minutes. The gain used for measurements was determined at the point of experiment on a tracer alone well. […]\nSelected peptide ligands of the invention were tested in the above mentioned IL-17A human fluorescence polarization (FP) competition assay and the results are shown in Table 1: […]", "note": "Numbered stars: 1 amine (or outer) side, 2 acyl side, 3 side chain; on linkers, the order of the positions; unused ones are H or OH. Bridge positions count the residues as written; N and C are the ends. Ends that are not written are not given here. TAST = 1,4,7-tris(vinylsulfonyl)-1,4,7-triazonane scaffold, O=S(=O)(CC[*:1])N1CCN(S(=O)(=O)CC[*:2])CCN(S(=O)(=O)CC[*:3])CC1"}
{"binder": "B1", "values": [{"measurement": "Ki", "result": 313, "unit": "nM"}]}
